Assay results as given in US20200176073A1.

Target: CXCR4 cognate ligand SDF1a (or CCL12) (UniProt P48061)
Assay: ELISA, water-soluble CXCR4 with CCL12 (SDF1a), assay concentrations 50 nM to 10 uM

Chain of CXCR4 cognate ligand SDF1a (or CCL12) (P48061 22-89 limits assumed): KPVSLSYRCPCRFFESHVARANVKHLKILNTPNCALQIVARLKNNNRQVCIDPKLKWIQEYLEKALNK

- Kd: 80 nM
Substance: water-soluble CXCR4-QTY protein, produced in E. coli BL21 (DE3) and purified with 1D4 rho-tag monoclonal antibody (receptor)
